Reference: the supplement of paper PMC7877785
± gives the uncertainty stated by the source.

Assay: self-splicing fitness, log relative to wild type (ln ratio); higher = more splicing; Tetrahymena group I intron in knt gene, E. coli kanamycin selection, DiMSum; sequences stand for … in CUCUCU…GGAGGGAAAAGUUAUCAGGCAUGCACCUGGUAGCUAGUCUUUAAACCAAUAGAUUGCAUCGGUUUAAAAGGCAAGACCGUCAAAUUGCGGGAAAGGGGUCAACAGCCGUUCAGUACCAAGUCUCAGGGGAAACUUUGAGAUGGCCUUGCAAAGGGUAUGGUAAUAAGCUGACGGACAUGGUCCUAACCACGCAGCCAAGUCCUAAGUCAACAGAUCUUCUGUUGAUAUGGAUGCAGUUCACAGACUAAAUGUCGGUCGGGGAAGAUGUAUUCUUCUCAUAAGAUAUAGUCGGACCUCUCCUUAAUGGGAGCUAGCGGAUGAAGUGAUGCAACACUGGAGCCGCUGGGAACUAAUUUGUAUGCGAAAGUAUAUUGAUUAGUUUUGGAGUACUCGUGGUCG
How it was run: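 A randomised library covering all eight P1ex-region intron nucleotides was built with the intron in the knt kanamycin-resistance gene on pET-22b(+) and held in E. coli BL21(DE3). Cells were grown overnight at 37°C or 30°C on LB agar, with or without 25 μg/mL kanamycin, plus 100 μg/mL carbenicillin, 50 μM IPTG and 0.2% rhamnose, and pooled colonies were amplicon-sequenced on an Illumina HiSeq 2500. DiMSum fitness is the error-weighted combination of wild-type-normalised replicate fold changes, kanamycin versus none.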

Sequence | self-splicing fitness (ln) (30 °C) | self-splicing fitness (ln) (37 °C)
CGGAAGCAAUAUUACGAUCC | -3.21 ± 0.37 | -1.42 ± 0.23
AGGAAGCAAUAUUACGCGAC | -2.62 ± 0.45 | -0.793 ± 0.31
UAAAAGCAAUAUUACGUCUU | -0.765 ± 0.058 | -0.487 ± 0.076
UGGAAGCAAUAUUACGAUAU | -2.59 ± 0.18 | -2.39 ± 0.21
UCCCAGCAAUAUUACGGUAC | -3.29 ± 0.2 | -1.71 ± 0.17
UUGAAGCAAUAUUACGAUUA | 0.283 ± 0.096 | -0.455 ± 0.096
GUCCAGCAAUAUUACGCCCU | -0.888 ± 0.13 | -0.617 ± 0.18
AGAUAGCAAUAUUACGUACA | -1.26 ± 0.055 | -0.0902 ± 0.08
GAUGAGCAAUAUUACGAGUA | -3.4 ± 0.43 | -1.92 ± 0.2
CGGCAGCAAUAUUACGUAGG | -0.38 ± 0.075 | 0.0683 ± 0.097
AUCCAGCAAUAUUACGGGCG | -0.327 ± 0.066 | 0.25 ± 0.089
ACAAAGCAAUAUUACGGUGA | -1.28 ± 0.069 | -0.535 ± 0.07
CGUUAGCAAUAUUACGAAAU | -3.82 ± 0.35 | -2.2 ± 0.28
GCGUAGCAAUAUUACGGACA | -1.31 ± 0.17 | -0.534 ± 0.13
AAGCAGCAAUAUUACGACGU | -0.298 ± 0.067 | 0.18 ± 0.077
CCAAAGCAAUAUUACGUCGG | -3.29 ± 0.18 | -2.23 ± 0.2
CCAAAGCAAUAUUACGACAA | -2.42 ± 0.27 | -2.54 ± 0.28
UAGCAGCAAUAUUACGCAAU | -2.82 ± 0.13 | -1.68 ± 0.11
UCGAAGCAAUAUUACGUGCA | -0.485 ± 0.096 | -0.214 ± 0.095
UAGCAGCAAUAUUACGGGAU | -4.22 ± 0.39 | -2.7 ± 0.26
CGCAAGCAAUAUUACGUAGA | -2.6 ± 0.11 | -1.73 ± 0.13
CAAAAGCAAUAUUACGGAUG | -2.76 ± 0.11 | -1.4 ± 0.14
AAAUAGCAAUAUUACGACGU | 0.194 ± 0.083 | -0.646 ± 0.074
GAAAAGCAAUAUUACGCCUA | -1.15 ± 0.11 | -0.681 ± 0.099
CGCUAGCAAUAUUACGCGGG | -4.55 ± 0.26 | -2.08 ± 0.16
CGAGAGCAAUAUUACGAGCA | -1.62 ± 0.34 | 

Sequence | self-splicing fitness (ln) (30 °C) | self-splicing fitness (ln) (37 °C)
UACGAGCAAUAUUACGGCGU | -2.83 ± 0.33 | -1.73 ± 0.29
ACGAAGCAAUAUUACGUGCC | -1.6 ± 0.079 | -0.89 ± 0.1
GGGAAGCAAUAUUACGAGAC | -1.98 ± 0.26 | -2.1 ± 0.34
ACUAAGCAAUAUUACGCUUC | -1.69 ± 0.17 | -0.717 ± 0.14
GAACAGCAAUAUUACGGUAA | -1.2 ± 0.059 | -0.286 ± 0.064
AUUUAGCAAUAUUACGCACU | 0.177 ± 0.13 | 0.474 ± 0.16
UAAGAGCAAUAUUACGCUUG | -2.66 ± 0.23 | -1.38 ± 0.18
UAUGAGCAAUAUUACGUGUC | -3.77 ± 0.28 | -3.2 ± 0.4
GUUCAGCAAUAUUACGAAUC | -3.73 ± 0.24 | -2.29 ± 0.33
CCACAGCAAUAUUACGUUCC | -4.24 ± 0.24 | -2.84 ± 0.27
CUGCAGCAAUAUUACGGCAA | -0.665 ± 0.094 | 0.202 ± 0.088
UCCUAGCAAUAUUACGCUCU | -3.33 ± 0.3 | -2.67 ± 0.3
GGCAAGCAAUAUUACGACUU | -0.555 ± 0.082 | 0.226 ± 0.083
CCAGAGCAAUAUUACGACUA | -2.95 ± 0.28 | -2.47 ± 0.38
CCAAAGCAAUAUUACGCAGU | -3.71 ± 0.21 | -1.64 ± 0.16
UUACAGCAAUAUUACGGGGC | -3.36 ± 0.48 | -1.17 ± 0.45
CUCGAGCAAUAUUACGCGAU | -3.25 ± 0.17 | -2.96 ± 0.23
GGAUAGCAAUAUUACGCUAG | -2.26 ± 0.19 | -1.21 ± 0.18
AGGAAGCAAUAUUACGUAUA | -1.79 ± 0.17 | -2.16 ± 0.24
AGUCAGCAAUAUUACGAGGG | -4.73 ± 0.31 | -3.06 ± 0.25
UCUCAGCAAUAUUACGUCUG | -4.98 ± 0.45 | -2.82 ± 0.25
UGAGAGCAAUAUUACGGACG | -1.67 ± 0.28 | -0.294 ± 0.41
CCCGAGCAAUAUUACGUGUG | -3.24 ± 0.12 | -1.86 ± 0.098
CUGCAGCAAUAUUACGGAAC | -3.88 ± 0.27 | -1.81 ± 0.27
GGGGAGCAAUAUUACGUAUU |  | -3.33 ± 0.42
GACGAGCAAUAUUACGGUUC |  | -3.11 ± 0.47

Sequence | self-splicing fitness (ln) (30 °C) | self-splicing fitness (ln) (37 °C)
AUAGAGCAAUAUUACGUGUG | -1.61 ± 0.1 | -2.39 ± 0.2
UUUGAGCAAUAUUACGAUUG | -3.75 ± 0.47 | -2.41 ± 0.31
UGCCAGCAAUAUUACGCCAA | -1.24 ± 0.15 | -1.8 ± 0.21
AUCUAGCAAUAUUACGAUGA | -1.03 ± 0.091 | -0.237 ± 0.091
CUAUAGCAAUAUUACGUCAG | -1.75 ± 0.11 | -0.591 ± 0.12
GUCCAGCAAUAUUACGAACC | -1.97 ± 0.093 | -0.224 ± 0.11
CUCGAGCAAUAUUACGCAUA | -2.34 ± 0.26 | 
CAACAGCAAUAUUACGUGGA | -3.08 ± 0.13 | -2.08 ± 0.096
UUUAAGCAAUAUUACGAAUG | -1.54 ± 0.13 | -0.41 ± 0.15
UCAGAGCAAUAUUACGAGCU | -2.68 ± 0.38 | -1.58 ± 0.29
GACUAGCAAUAUUACGUUGA | -2.07 ± 0.21 | -1.59 ± 0.15
AUACAGCAAUAUUACGCUGU | -4.13 ± 0.36 | -3.51 ± 0.33
CCCCAGCAAUAUUACGCUGU | -4 ± 0.21 | -3.09 ± 0.18
UGAAAGCAAUAUUACGAGUC | -3.42 ± 0.28 | -2.28 ± 0.26
AAUGAGCAAUAUUACGUAAC | -3.92 ± 0.27 | -2.45 ± 0.21
AUGAAGCAAUAUUACGCUGA | -1.2 ± 0.13 | -1.24 ± 0.17
CUAAAGCAAUAUUACGAAGC |  | -2.06 ± 0.42
CCCUAGCAAUAUUACGCAAA | -3.13 ± 0.24 | -3.49 ± 0.42
ACUCAGCAAUAUUACGAUAG | -4.03 ± 0.24 | -2.21 ± 0.17
ACAUAGCAAUAUUACGAUAG | -3.38 ± 0.19 | -1.36 ± 0.17
CUUUAGCAAUAUUACGUUCU | -3.16 ± 0.25 | -2.78 ± 0.29
CGACAGCAAUAUUACGGUAA | -1.81 ± 0.13 | -1.44 ± 0.11
GCAAAGCAAUAUUACGUUCG | -1.51 ± 0.08 | -0.192 ± 0.12
ACGUAGCAAUAUUACGACCU | -0.0641 ± 0.099 | 0.527 ± 0.11
